This test deals with coxsackievirus-adenovirus receptor (CAR) (UniProt P78310). Description: cell-based or functional assay.
Sequence of UniProt P78310 (P78310 20-365 limits assumed): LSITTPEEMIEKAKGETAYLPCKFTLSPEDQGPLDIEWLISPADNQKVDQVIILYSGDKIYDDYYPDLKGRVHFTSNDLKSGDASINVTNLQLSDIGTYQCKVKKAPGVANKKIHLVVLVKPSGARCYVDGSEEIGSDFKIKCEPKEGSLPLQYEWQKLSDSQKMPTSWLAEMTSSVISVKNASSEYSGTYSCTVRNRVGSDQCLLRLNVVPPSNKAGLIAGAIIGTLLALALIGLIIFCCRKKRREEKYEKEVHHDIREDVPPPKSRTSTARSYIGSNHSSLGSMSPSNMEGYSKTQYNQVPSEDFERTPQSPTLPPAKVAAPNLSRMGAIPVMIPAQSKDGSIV

For the substance “free soluble Ad5 fiber molecules (from UniProt P11818 1-581) (ligand)”, the GFP expression (transduction) of A549 cells by Ad5(GFP) at 500 evg/cell in the presence of soluble Ad5 fiber, relative to absence of soluble fiber (set to 100%) was determined as 20% and the Transduction efficacy of A549 cells by Ad5PTD(GFP) at 500 evg/cell in the presence of soluble Ad5 fiber, relative to absence of soluble fiber (set to 100%) was determined as 80%.

(Values after patent US20130302313A1.)
